From US5102995A, “DNA encoding modified heparin cofactor II” (Washington University, priority 1989, dated 1992)

Key:
factor Xa = test: Inhibition of factor Xa by rHCII (Spectrozyme FXa); type: biochemical, human; conditions: for Second-order rate constant (k2) for inhibition of factor Xa: No GAG, factor Xa 16 nM; for Inhibition of factor Xa (in words): absence of a glycosaminoglycan
Protocol: (§1) Materials--Chromogenic substrates were purchased from the following sources: tosyl-Gly-Pro-Arg-p-nitroanilide (Chromozym TH), Boehringer Mannheim; N-succinyl-Ala-Ala-Pro-Phe-p-nitroanilde, Sigma; methoxycarbonyl cyclohexylglycyl-Gly-Arg-p-nitroanilde (Spectrozyme FXa), American Diagnostica; and Pro-Phe-Arg-p-nitroanilide (S-2302), KabiVitrum. Thrombin and HCII derived from human plasma were prepared and assayed by conventional procedures as previously described by Blinder et al., J. Biol. Chem. 264, 5128-5133 (1989). Human coagulation factor Xa was provided by Dr. George Broze, Jr., Washington University, St. Louis, Mo. Human chymotrypsin and plasma kallikrein were purchased from Sigma. Affinity purified rabbit anti-HCII antibodies were prepared and labeled with Na[^125 I] by conventional procedure as described previously by Blinder et al., Biochemistry 27, 752-759 (1988). Bovine lung heparin and porcine skin dermatan sulfate were purchased from Sigma; the dermatan sulfate was treated with nitrous acid to remove contaminating heparin prior to use [Teien et al., Thromb. Res. 8, 859-867 (1976)]. Heparin-Sepharose was prepared by commonly known procedure as described previously by Tollefsen et al., J. Biol. Chem. 257, 2162-2169 (1982).
(§2) Inhibition of proteases by rHCII--Protease inhibition by rHCII was determined by incubating 90 μl of the partially purified rHCII (or the corresponding heparin-Sepharose fractions of a control lysate from cells transformed with pMON-5840) with 5 μl of the protease and 5 μl of either glycosaminoglycan or water in a disposable polystyrene cuvette at room temperature. Final concentrations of the proteases were as follows: thrombin, 15 nM; chymotrypsin, 21 nM; factor Xa, 16 nM; and kallikrein, 10 nM. After a specified period of time from 5 seconds (s) to 150 min, 300-500 μl of the appropriate chromogenic substrate was added, and the absorbance at 405 nm was recorded continuously for 100 s. The rate of change of absorbance was proportional to the concentration of active protease remaining in the incubation. The amounts added and concentrations of each substrate were as follows: Chromozym TH (thrombin), 500 μl, 0.1 mM; N-succinyl-Ala-Ala-Pro-Phe-p-nitroanilde (chymovtrypsin), 300 μl, 0.5 mM; Spectrozyme FXa (factor Xa), 400 μl, 0.125 mM; and S-2302 (kallikrein), 300 μl, 0.4 mM.
(§3) Protease inhibition by rHCII in the absence of a glycosaminoglycan--The time courses of inhibition of thrombin, factor Xa, kallikrein, and chymotrypsin by […] rHCII(Leu444 →Arg) in the absence of a glycosaminoglycan are indicated in FIG. 3. The incubations were performed under pseudo-first-order conditions, such that the initial concentration of rHCII was greater than the concentration of protease. The pseudo-first-order rate constants (k1) for protease inhibition were determined by fitting the data to the following equation: k1 t=ln([P]0 /[P]t), in which [P]0 =initial protease activity and [P]t =protease activity at time=t. The second-order rate constants (k2) were then calculated by dividing k1 by the initial rHCII concentration. It was observed that rHCII(Leu444 →Arg) inhibits thrombin almost 100 times more rapidly than native rHCII in the absence of a glycosaminoglycan. Furthermore, rHCII(Leu444 →Arg) inhibits factor Xa and kallikrein, while inhibition of these proteases by native rHCII is undetectable.

thrombin [1] = test: Inhibition of thrombin by rHCII (chromogenic substrate Chromozym TH); type: biochemical, human; conditions: for Second-order rate constant (k2) for inhibition of thrombin: No GAG, thrombin 15 nM, room temperature; for Increase in the rate constant for thrombin inhibition produced by dermatan sulfate: dermatan sulfate vs no GAG; for Increase in the rate constant for thrombin inhibition produced by heparin: heparin vs no GAG; for Maximum rate constant of thrombin inhibition relative to native HCII: in the presence of dermatan sulfate
Protocol: as §1, §2, §3
Inhibition of thrombin by rHCII in the presence of dermatan sulfate or heparin--The time course of inhibition of thrombin was determined in the presence of various concentrations of dermatan sulfate or heparin.

chymotrypsin = test: Inhibition of chymotrypsin by rHCII (chromogenic substrate); type: biochemical, human; conditions: for Second-order rate constant (k2) for inhibition of chymotrypsin: No GAG, chymotrypsin 21 nM; for Inhibition of chymotrypsin (in words): absence of a glycosaminoglycan
Protocol: as §1, §2, §3

plasma kallikrein = test: Inhibition of kallikrein by rHCII (S-2302); type: biochemical, human; conditions: for Second-order rate constant (k2) for inhibition of kallikrein: No GAG, kallikrein 10 nM; for Inhibition of kallikrein (in words): absence of a glycosaminoglycan
Protocol: as §1, §2, §3

thrombin [2] = conditions: literature; cited from earlier work

B1: rHCII(Leu444 →Arg): modified heparin cofactor II: leucine at position 444 replaced by arginine in the 480 amino acid sequence; expressed in E. coli (protein, UniProt P05546 20-499, looked up, variant L444R)
Heparin cofactor 2: GSKGPLDQLEKGGETAQSADPQWEQLNNKNLSMPLLPADFHKENTVTNDWIPEGEEDDDYLDLEKIFSEDDDYIDIVDSLSVSPTDSDVSAGNILQLFHGKSRIQRLNILNAKFAFNLYRVLKDQVNTFDNIFIAPVGISTAMGMISLGLKGETHEQVHSILHFKDFVNASSKYEITTIHNLFRKLTHRLFRRNFGYTLRSVNDLYIQKQFPILLDFKTKVREYYFAEAQIADFSDPAFISKTNNHIMKLTKGLIKDALENIDPATQMMILNCIYFKGSWVNKFPVEMTHNHNFRLNEREVVKVSMMQTKGNFLAANDQELDCDILQLEYVGGISMLIVVPHKMSGMKTLEAQLTPRVVERWQKSMTNRTREVLLPKFKLEKNYNLVESLKLMGIRMLFDKNGNMAGISDQRIAIDLFKHQGTITVNEEGTQATTVTTVGFMPRSTQVRFTVDRPFLFLIYEHRTSCLLFMGRVANPSRS
modifications: expressed in E. coli
Factor Xa
  Second-order rate constant (k2) for inhibition of factor Xa: 733 M⁻¹ s⁻¹
  Inhibition of factor Xa (in words): inhibits
Factor Xa; listed as HCII(Leu444 →Arg)
  Inhibition of factor Xa (in words): inhibited more rapidly
Factor Xa; dermatan sulfate
  Effect of dermatan sulfate on rate of inhibition of factor Xa: nor does it increase
Factor Xa; heparin 100 μg/ml
  Effect of heparin on inhibition of factor Xa: appears to protect
Thrombin [1]
  Second-order rate constant (k2) for inhibition of thrombin: 103000 M⁻¹ s⁻¹
  Increase in the rate constant for thrombin inhibition produced by dermatan sulfate: much smaller effect
  Increase in the rate constant for thrombin inhibition produced by heparin: minimal effect
  Maximum rate constant of thrombin inhibition relative to native HCII: about twice as fast
Thrombin [1]; listed as HCII(Leu444 →Arg)
  Second-order rate constant (k2) for inhibition of thrombin: 103000 M⁻¹ s⁻¹
  Maximum rate constant of thrombin inhibition relative to native HCII: 2 fold
Thrombin [1]; absence of a glycosaminoglycan
  Rate of thrombin inhibition relative to native HCII: ~100 fold
chymotrypsin
  Second-order rate constant (k2) for inhibition of chymotrypsin: < 170 M⁻¹ s⁻¹
  Inhibition of chymotrypsin (in words): does not inhibit chymotrypsin at a detectable rate
chymotrypsin; listed as HCII(Leu444 →Arg)
  Inhibition of chymotrypsin (in words): more slowly
Plasma kallikrein
  Second-order rate constant (k2) for inhibition of kallikrein: 2170 M⁻¹ s⁻¹
  Inhibition of kallikrein (in words): inhibits
Plasma kallikrein; listed as HCII(Leu444 →Arg)
  Inhibition of kallikrein (in words): inhibited more rapidly
Plasma kallikrein; heparin 100 μg/ml
  Effect of heparin on inhibition of kallikrein: appears to protect

B2: native rHCII: recombinant native heparin cofactor II expressed in E. coli; amino acid sequence identical to HCII purified from human plasma (protein, UniProt P05546 20-499, looked up)
Heparin cofactor 2: GSKGPLDQLEKGGETAQSADPQWEQLNNKNLSMPLLPADFHKENTVTNDWIPEGEEDDDYLDLEKIFSEDDDYIDIVDSLSVSPTDSDVSAGNILQLFHGKSRIQRLNILNAKFAFNLYRVLKDQVNTFDNIFIAPVGISTAMGMISLGLKGETHEQVHSILHFKDFVNASSKYEITTIHNLFRKLTHRLFRRNFGYTLRSVNDLYIQKQFPILLDFKTKVREYYFAEAQIADFSDPAFISKTNNHIMKLTKGLIKDALENIDPATQMMILNCIYFKGSWVNKFPVEMTHNHNFRLNEREVVKVSMMQTKGNFLAANDQELDCDILQLEYVGGISMLIVVPHKMSGMKTLEAQLTPRVVERWQKSMTNRTREVLLPKFKLEKNYNLVESLKLMGIRMLFDKNGNMAGISDQRIAIDLFKHQGTITVNEEGTQATTVTTVGFMPLSTQVRFTVDRPFLFLIYEHRTSCLLFMGRVANPSRS
Factor Xa
  Second-order rate constant (k2) for inhibition of factor Xa: < 17 M⁻¹ s⁻¹
  Inhibition of factor Xa (in words): undetectable
Thrombin [1]
  Second-order rate constant (k2) for inhibition of thrombin: 1050 M⁻¹ s⁻¹
  Increase in the rate constant for thrombin inhibition produced by dermatan sulfate: ~3500 fold
  Increase in the rate constant for thrombin inhibition produced by heparin: about 40 fold
Thrombin [1]; listed as native HCII
  Second-order rate constant (k2) for inhibition of thrombin: 1050 M⁻¹ s⁻¹
chymotrypsin
  Second-order rate constant (k2) for inhibition of chymotrypsin: 3670 M⁻¹ s⁻¹
chymotrypsin; dermatan sulfate
  Effect of dermatan sulfate on rate of inhibition of chymotrypsin: does not significantly increase
Plasma kallikrein
  Second-order rate constant (k2) for inhibition of kallikrein: < 50 M⁻¹ s⁻¹
  Inhibition of kallikrein (in words): undetectable

B3: HCII: heparin cofactor II, a 65,600 dalton plasma glycoprotein, serpin that inhibits thrombin (protein, UniProt P05546 20-499, looked up)
Heparin cofactor 2: GSKGPLDQLEKGGETAQSADPQWEQLNNKNLSMPLLPADFHKENTVTNDWIPEGEEDDDYLDLEKIFSEDDDYIDIVDSLSVSPTDSDVSAGNILQLFHGKSRIQRLNILNAKFAFNLYRVLKDQVNTFDNIFIAPVGISTAMGMISLGLKGETHEQVHSILHFKDFVNASSKYEITTIHNLFRKLTHRLFRRNFGYTLRSVNDLYIQKQFPILLDFKTKVREYYFAEAQIADFSDPAFISKTNNHIMKLTKGLIKDALENIDPATQMMILNCIYFKGSWVNKFPVEMTHNHNFRLNEREVVKVSMMQTKGNFLAANDQELDCDILQLEYVGGISMLIVVPHKMSGMKTLEAQLTPRVVERWQKSMTNRTREVLLPKFKLEKNYNLVESLKLMGIRMLFDKNGNMAGISDQRIAIDLFKHQGTITVNEEGTQATTVTTVGFMPLSTQVRFTVDRPFLFLIYEHRTSCLLFMGRVANPSRS
Thrombin [2]
  Increase of the rate of thrombin inhibition by heparin and dermatan sulfate: ~ 1000 fold
